Among the data in paper PMC11505474, “Functional Characterization of the Ciliate Stylonychia lemnae Serotonin N-Acetyltransferase, a Pivotal Enzyme in Melatonin Biosynthesis and Its Overexpression Leads to Peroxidizing Herbicide Tolerance in Rice” (Antioxidants, 2024) are Km values, retold here.

Series [1] has as its system COc1ccc2[nH]cc(CCN)c2c1. Kind of series: purified protein. The conditions noted are these: acetyl-CoA 0.5 mM co-substrate, 100 mM potassium phosphate, pH 8.8 (or varying pH), 55 °C (general assay).
Series [2] has as its system NCCc1c[nH]c2ccc(O)cc12. Kind of series: purified protein. The conditions noted are these: acetyl-CoA 0.5 mM co-substrate, 100 mM potassium phosphate, pH 8.8 (or varying pH), 55 °C (general assay).

Turning to “SlSNAT (Stylonychia lemnae serotonin N-acetyltransferase) (Stylonychia lemnae)”, the Km in series [1] is listed as 246 µM; in series [2], 776 µM.
